Laboratory results as given in paper PMC4266902, “Néstor-Guillermo Progeria Syndrome: a biochemical insight into Barrier-to-Autointegration Factor 1, alanine 12 threonine mutation” (BMC Molecular Biology, 2014).
Residue numbers refer to the chain shown, from its start. Names and notes keep the numbering of the source.

B1: FAM-labelled short dsDNA (dsDNA)
DNA 1: CTCTCCCTTCGCTCCTTTCCTCT
DNA 2: AGAGGAAAGGAGCGAAGGGAGAG
B2: recombinant HexaHis-tagged wild type BANF1 (Barrier-to-Autointegration Factor 1) (natural protein, human, UniProt O75531 1-89, looked up)
chain: MTTSQKHRDFVAEPMGEKPVGSLAGIGEVLGKKLEERGFDKAYVVLGQFLVLKKDEDLFREWLKDTCGANAKQSRDCFGCLREWCDAFL
notes: Barrier-to-Autointegration Factor 1 (BANF1, BAF1), human, 89 amino acid residues; BANF1 CDS sub-cloned into pEX-N-His (Origene); also called BANF1 WT; WT BANF1; not shown: His6, N-terminal, kept
B3: recombinant HexaHis-tagged A12T BANF1 (natural protein, human, UniProt O75531 1-89, looked up)
chain: B2 chain with A12T
notes: Barrier-to-Autointegration Factor 1 (BANF1, BAF1), human, 89 amino acid residues; BANF1 CDS in pEX-N-His (Origene) with the patient mutation c.34G>A [p.A12T] made by site-directed mutagenesis; A12T is the mutation found in patients with Nestor-Guillermo Progeria Syndrome; also called BANF1 A12T; A12T mutant; not shown: His6, N-terminal, kept

Legend:
[1] = target: T1, BANF1 WT (UniProt O75531 1-89); assay: EMSA; 0-1 uM protein, 10 nM DNA, 30 min 4 C; 10 mM Tris-HCl pH 7.0, 20 mM NaCl, 100 ng/mL BSA, 5 mM DTT, 30 min at 4 C; 7% PAGE 0.5x TBE at 4 C (short DNA) or 0.6% agarose 1x TBE (plasmid); conditions: protein: recombinant; tags: N-terminal His6; label: 5'-FAM on strand 1; blunt
T1 sequence: B2 chain

[2] = target: the molecule itself; assay: SEC; gel filtration of recombinant HexaHis BANF1, absorbance at 280 nm against elution volume; column calibrated with carbonic anhydrase (29 kDa) and myoglobin (17 kDa)

| Binder | binding result [1] | stoichiometry N [2] |
| --- | --- | --- |
| B1 | binds |  |
| B2 |  | 2 |
| B3 |  | 2 |
